FireProtDB (doi:10.1110/ps.8.9.1843)

B1: Guanyl-specific ribonuclease T1, P00651 (parent)
chain: MMYSKLLTLTTLLLPTALALPSLVERACDYTCGSNCYSSSDVSTAQAAGYQLHEDGETVGSNSYPHKYNNYEGFDFSVSSPYYEWPILSSGDVYSGGSPGADRVVFNENNQLAGVITHTGASGNNFVECT
B2: Guanyl-specific ribonuclease Sa, P05798 (parent)
chain: DVSGTVCLSALPPEATDTLNLIASDGPFPYSQDGVVFQNRESVLPTQSYGYYHEYTVITPGARTRGTRRIITGEATQEDYYTGDHYATFSLIDQTC

Legend:
[1] = variants of: B1; conditions: Aspergillus oryzae (strain ATCC 42149 / RIB 40), 25 °C, Urea, CD, structure 1RN1, whole UniProt chain shown
[2] = variants of: B2; conditions: Kitasatospora aureofaciens; pH 7; Thermal; CD; MOPS 30 mM; structure 1RGG; whole UniProt chain shown

Variant	denaturant m value ([1]; pH 2.5, glycine 30 mM)	denaturant midpoint (higher = more stable) ([1]; pH 2.5, glycine 30 mM)	denaturant m value ([1]; pH 7, MOPS 30 mM)	denaturant midpoint (higher = more stable) ([1]; pH 7, MOPS 30 mM)	Tm [2]	unfolding enthalpy (van 't Hoff) [2]
D75A	1.69 kcal/mol/M	3.42 M	1.21 kcal/mol/M	5.67 M		
D25K					50.2 °C	93 kcal/mol
E74K					51.1 °C	94 kcal/mol
